Measured values published in article PMC3070544 (Structure (London, England : 1993), 2011).

Target: the molecule itself
Test: AUC

B1: mouse E-cadherin EC1-5 ectodomain, wild type (domain or fragment)
chain: DWVIPPISCPENEKGEFPKNLVQIKSNRDKETKVFYSITGQGADKPPVGVFIIERETGWLKVTQPLDREAIAKYILYSHAVSSNGEAVEDPMEIVITVTDQNDNRPEFTQEVFEGSVAEGAVPGTSVMKVSATDADDDVNTYNAAIAYTIVSQDPELPHKNMFTVNRDTGVISVLTSGLDRESYPTYTLVVQAADLQGEGLSTTAKAVITVKDINDNAPVFNPSTYQGQVPENEVNARIATLKVTDDDAPNTPAWKAVYTVVNDPDQQFVVVTDPTTNDGILKTAKGLDFEAKQQYILHVRVENEEPFEGSLVPSTATVTVDVVDVNEAPIFMPAERRVEVPEDFGVGQEITSYTAREPDTFMDQKITYRIWRDTANWLEINPETGAIFTRAEMDREDAEHVKNSTYVALIIATDDGSPIATGTGTLLLVLLDVNDNAPIPEPRNMQFCQRNPQPHIITILDPDLPPNTSPFTAELTHGASVNWTIEYNDAAQESLILQPRKDLEIGEYKIHLKLADNQNKDQVTTLDVHVCDCEGTVNNCMKA
modifications: O-linked glycosylation observed in the structure
B1 showed a Kd of ~100 µM.
